Assay results: patent US20150284428A1 (INTERK PEPTIDE THERAPEUTICS, published 2015)

Molecular target: T1, cytoplasmic domain of β6 having the amino acid sequence HDRKEVAKFEAERSKAKWQTGTNPLYRGSTSTFKNVTYKHREKQKVDLSTDC
T1 construct: Integrin β6 subunit cytoplasmic domain; also called β6 domain; cytoplasmic domain fragment of β6
T1 chain: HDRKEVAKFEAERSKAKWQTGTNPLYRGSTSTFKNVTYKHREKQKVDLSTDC
Assay: binding assay of MAP kinase fragments with β6 cytoplasmic domain, FIG. 4

binding result: binds
Binder: HRDLKPSNLAVNEDCELKILDFGLAR (also called fragment of p38 MAP kinase) [p38 MAP kinase fragment HRDLKPSNLAVNEDCELKILDFGLAR]
